Results taken from patent US5891673, “Lck binding protein” (Syntex (U.S.A.) Inc., dated 1999).

B1: GST-LckBP1-#4 (other)
chain: MEAPTTAYKKTTPIEAASSGARGLKAKFESLAEEKRKREEEEKAQQMARQQQERKAVVKMSREVQQPSMPVEEPAAPAQLPKKISSEVWPPAESHLPPESQPVRSRREYPVPSLPTRQSPL
B2: GST-LckBP1-#5 (other)
chain: MEAPTTAYKKTTPIEAASSGARGLKAKFESLAEEKRKREEEEKAQQMARQQQERKAVVKMSREVQQ
B3: GST-LckBP1-#8 (other)
chain: AIALYDYQGEGSDELSFDPDDIITDIEMVDEGWWRGQCRGHFGLFPANYVKLL

Biological target: biotinylated GST (Schistosoma japonicum (Blood fluke), UniProt P08515 = GST, biotinylated (sites not given))
Assay: blot of GST-LckBP1 deletion mutants probed with biotinylated GST
Description: DNA deletion fragments were obtained by PCR, and subcloned into the pGEX-2T vector (FIG. 7). The fusion proteins produced in *E. coli* were subjected to SDS-PAGE, transferred to a nitrocellulose filter, and probed with biotinylated GST or GST-Lck SH3 protein.

Binder | binding result
B1 | no binding
B2 | no binding
B3 | no binding
